Test results published in patent US20060078537A1.

Target: human CCR5 (human) (UniProt P51681)
Assay: cell-based or functional assay

Sequence of human CCR5 (human) (P51681 whole entry): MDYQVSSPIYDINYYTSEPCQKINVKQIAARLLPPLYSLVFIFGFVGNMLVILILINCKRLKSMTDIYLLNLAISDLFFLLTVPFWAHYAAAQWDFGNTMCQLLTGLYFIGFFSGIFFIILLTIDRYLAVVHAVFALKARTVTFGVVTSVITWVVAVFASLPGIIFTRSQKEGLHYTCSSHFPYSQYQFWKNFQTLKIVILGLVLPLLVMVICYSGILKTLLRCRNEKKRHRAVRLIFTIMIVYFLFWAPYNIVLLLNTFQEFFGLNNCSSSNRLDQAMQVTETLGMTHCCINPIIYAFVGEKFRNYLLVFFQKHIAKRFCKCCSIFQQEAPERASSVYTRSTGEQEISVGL

decrease of cell surface CCR5 on CHO cells expressing CCR5 (FACS, 30 minutes at 37° C.) at 5 µg/ml MC-1: 50%
B1: MC-1 anti-CCR5 monoclonal antibody (antibody, from another filing, V domains shown)
VH: QVQLQQPGAGRVRPGASVKLSCKASGYSFTSYWMNWVKQRPGQGLEWIGMIHPSDSETRLNQKFNDRATLTVDKYSSTAYIQLSSPTSEDSAVYYCARGEYYYGIFDYWGQGTTVTVSS
VL: DIQLTQSPASLSASVGETVTITCRASENIYSYLAWYQQKQGKSPQLLVYNAKTLTEGVPSRFSGSGSGTQFSLKINSLQPEDFGNYFCQHHYDTPRTFGGGTKLEIK
